B1: HA.ELK-1 [not stated] / recombinant core^SRF [not stated] (parent)
chain 1: MDPSVTLWQFLLQLLREQGNGHIISWTSRDGGEFKLVDAEEVARLWGLRKNKTNMNYDKLSRALRYYYDKNIIRKVSGQKFVYKFVSYPEVAGCSTEDCPPQPEVSVTSTMPNVAPAAIHAAPGDTVSGKPGTPKGAGMAGPGGLARSSRNEYMRSGLYSTFTIQSLQPQPPPHPRPAVVLPSAAPAGAAAPPSGSRSTSPSPLEACLEAEEAGLPLQVILTPPEAPNLKSEELNVEPGLGRALPPEVKVEGPKEELEVAGERGFVPETTKAEPEVPPQEGVPARLPAVVMDTAGQAGGHAASSPEISQPQKGRKPRDLELPLSPSLLGGPGPERTPGSGSGSGLQAPGPALTPSLLPTHTLTPVLLTPSSLPPSIHFWSTLSPIAPRSPAKLSFQFPSSGSAQVHIPSISVDGLSTPVVLSPGPQKP
chain 2: SGAKPGKKTRGRVKIKMEFIDNKLRRYTTFSKRKTGIMKKAYELSTLTGTQVLLLVASETGHVYTFATRKLQPMITSETGKALIQTCLNSP

Variants of: B1
Test: EMSA (ternary complex with coreSRF on radio-labelled SRE probe), densitometry
Details: parent: 100, read off a plot

percent of parent (% of ELK-1 (WT = 100))	Variant
11	chain 1 MDPSVTLWQFLLQLLREQGNGHIISWTSRDGGEFKLVDAEEVARLWGLRKNKTNMNYDRLSRALRYYYDKNIIRKVSGQKFVYKFVSYPEVAGCSTEDCPPQPEVSVTSTMPNVAPAAIHAAPGDTVSGKPGTPKGAGMAGPGGLARSSRNEYMRSGLYSTFTIQSLQPQPPPHPRPAVVLPSAAPAGAAAPPSGSRSTSPSPLEACLEAEEAGLPLQVILTPPEAPNLKSEELNVEPGLGRALPPEVKVEGPKEELEVAGERGFVPETTKAEPEVPPQEGVPARLPAVVMDTAGQAGGHAASSPEISQPQKGRKPRDLELPLSPSLLGGPGPERTPGSGSGSGLQAPGPALTPSLLPTHTLTPVLLTPSSLPPSIHFWSTLSPIAPRSPAKLSFQFPSSGSAQVHIPSISVDGLSTPVVLSPGPQKP [chain 1 K59R]
51	chain 1 MDPSVTLWQFLLQLLREQGNGHIISWTSRDGGEFKLVDAEEVARLWGLRRNRTNMNYDKLSRALRYYYDKNIIRKVSGQKFVYKFVSYPEVAGCSTEDCPPQPEVSVTSTMPNVAPAAIHAAPGDTVSGKPGTPKGAGMAGPGGLARSSRNEYMRSGLYSTFTIQSLQPQPPPHPRPAVVLPSAAPAGAAAPPSGSRSTSPSPLEACLEAEEAGLPLQVILTPPEAPNLKSEELNVEPGLGRALPPEVKVEGPKEELEVAGERGFVPETTKAEPEVPPQEGVPARLPAVVMDTAGQAGGHAASSPEISQPQKGRKPRDLELPLSPSLLGGPGPERTPGSGSGSGLQAPGPALTPSLLPTHTLTPVLLTPSSLPPSIHFWSTLSPIAPRSPAKLSFQFPSSGSAQVHIPSISVDGLSTPVVLSPGPQKP [chain 1 K50R K52R]
